# Test results: US20060035359A1 (BURNHAM INSTITUTE, published 2006)
# T1: 35S-labeled in vitro translated (IVT) SBP1 protein (human, UniProt Q8N5L8 1-163, 35S label)
# T1 construct: Translated in reticulocyte lysate from the full-length SBP1 cDNA; The two differ only at the C-terminal residues; also called full-length SBP1; human SBP1
# T1 sequence: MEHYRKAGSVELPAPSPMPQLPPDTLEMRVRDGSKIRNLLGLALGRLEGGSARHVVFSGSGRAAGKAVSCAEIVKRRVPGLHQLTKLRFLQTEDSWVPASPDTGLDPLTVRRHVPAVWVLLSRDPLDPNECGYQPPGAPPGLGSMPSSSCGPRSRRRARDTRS
# T2: fusion protein of the B42 trans-activation domain fused to pro-caspase-9 (UniProt P55211 1-416)
# T2 sequence (looked up): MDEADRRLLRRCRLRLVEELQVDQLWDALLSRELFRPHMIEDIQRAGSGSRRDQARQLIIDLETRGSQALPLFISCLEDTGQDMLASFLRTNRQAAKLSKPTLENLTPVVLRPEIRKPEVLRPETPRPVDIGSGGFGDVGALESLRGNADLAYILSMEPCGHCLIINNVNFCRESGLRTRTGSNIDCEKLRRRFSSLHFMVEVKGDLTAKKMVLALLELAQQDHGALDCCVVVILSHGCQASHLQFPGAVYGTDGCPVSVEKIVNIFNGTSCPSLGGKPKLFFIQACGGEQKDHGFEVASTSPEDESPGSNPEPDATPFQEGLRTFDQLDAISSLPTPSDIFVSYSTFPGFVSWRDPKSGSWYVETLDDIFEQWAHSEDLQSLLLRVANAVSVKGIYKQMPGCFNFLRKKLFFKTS
# T3: fusion protein of the B42 trans-activation domain fused to Apaf-1 (UniProt O14727 1-1248)
# T3 sequence (looked up): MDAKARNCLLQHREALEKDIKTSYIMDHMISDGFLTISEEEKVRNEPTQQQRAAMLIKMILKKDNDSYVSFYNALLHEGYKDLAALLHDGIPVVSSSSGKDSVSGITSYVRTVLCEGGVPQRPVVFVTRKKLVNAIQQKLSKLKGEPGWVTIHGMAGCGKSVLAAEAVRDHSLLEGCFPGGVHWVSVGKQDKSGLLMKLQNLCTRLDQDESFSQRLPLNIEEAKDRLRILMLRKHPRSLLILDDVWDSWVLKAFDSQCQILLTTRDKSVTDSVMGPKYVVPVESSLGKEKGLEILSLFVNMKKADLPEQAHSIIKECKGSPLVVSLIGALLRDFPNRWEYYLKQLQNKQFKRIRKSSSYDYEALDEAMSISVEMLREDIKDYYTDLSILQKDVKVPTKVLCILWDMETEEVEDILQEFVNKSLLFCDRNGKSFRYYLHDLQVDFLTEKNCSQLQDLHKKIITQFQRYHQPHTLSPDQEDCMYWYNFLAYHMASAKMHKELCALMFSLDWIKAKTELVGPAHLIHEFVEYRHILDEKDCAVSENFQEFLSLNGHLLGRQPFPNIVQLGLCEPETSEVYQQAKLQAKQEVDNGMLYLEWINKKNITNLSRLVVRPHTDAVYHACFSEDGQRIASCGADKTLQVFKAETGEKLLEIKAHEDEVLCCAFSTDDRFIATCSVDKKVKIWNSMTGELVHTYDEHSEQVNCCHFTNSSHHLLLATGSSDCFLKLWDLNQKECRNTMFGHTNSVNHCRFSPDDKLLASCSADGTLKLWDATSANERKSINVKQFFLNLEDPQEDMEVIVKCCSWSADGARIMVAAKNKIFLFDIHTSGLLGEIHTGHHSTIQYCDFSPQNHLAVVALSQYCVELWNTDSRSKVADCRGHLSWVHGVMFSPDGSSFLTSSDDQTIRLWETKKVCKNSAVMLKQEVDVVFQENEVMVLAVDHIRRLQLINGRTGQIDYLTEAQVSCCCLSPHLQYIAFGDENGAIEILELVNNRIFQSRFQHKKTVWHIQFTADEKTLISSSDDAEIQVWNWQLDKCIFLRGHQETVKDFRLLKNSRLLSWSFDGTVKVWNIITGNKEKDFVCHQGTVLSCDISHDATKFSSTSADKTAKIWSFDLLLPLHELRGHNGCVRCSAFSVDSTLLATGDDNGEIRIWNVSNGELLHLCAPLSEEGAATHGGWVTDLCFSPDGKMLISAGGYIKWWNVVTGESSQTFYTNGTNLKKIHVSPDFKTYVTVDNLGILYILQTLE
# B1: GST-CD40 cytosolic domain protein (other, UniProt P25942 216-277, looked up)
# chain: KKVAKKPTNKAPHPKQEPQEINFPDDLPGSNTAAPVQETLHGCQPVTQEDGKESRISVQERQ
# notes: domain: cytosolic domain; Negative control; also called GST-CD40 fusion protein; not shown: glutathione S-transferase (GST) fusion partner
# B2: fusion protein of the LexA DNA-binding domain appended to the N-terminus of SBP1 (other)
# chain: MKALTARQQEVFDLIRDHISQTGMPPTRAEIAQRLGFRSPNAAEEHLKALARKGVIEIVSGASRGIRLLQEEEEGLPLVGRVAAGEPLLAQQHIEGHYQVDPSLFKPNADFLLRVSGMSMKDIGIMDGDLLAVHKTQDVRNGQVVVARIDDEVTVKRLKKQGNKVELLPENSEFKPIVVDLRQQSFTIEGLAVGVIRNGDWLMEHYRKAGSVELPAPSPMPQLPPDTLEMRVRDGSKIRNLLGLALGRLEGGSARHVVFSGSGRAAGKAVSCAEIVKRRVPGLHQLTKLRFLQTEDSWVPASPDTGLDPLTVRRHVPAVWVLLSRDPLDPNECGYQPPGAPPGLGSMPSSSCGPRSRRRARDTRS
# notes: Yeast two-hybrid construct expressed in yeast strain EGY48
# Tests used:
# His-CKS1 = His-CKS1 (UniProt P61024)
# Sequence of His-CKS1 (P61024 whole entry, looked up): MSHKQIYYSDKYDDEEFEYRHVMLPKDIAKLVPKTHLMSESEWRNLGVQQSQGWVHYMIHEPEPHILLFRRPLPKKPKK
# [1] = target: T1, 35S-labeled in vitro translated (IVT) …; test: GST pull-down of 35S-labeled IVT SBP1, SDS-PAGE and fluorography
# Protocol: cDNAs encoding wild type Survivin or Survivin T34E was cloned into the EcoRI and XhoI sites of pGEX-4T-1 (Amersham-Pharmacia, Sweden), expressed in XL-1-blue cells (Stratagene, Inc., La Jolla, Calif.), and affinity-purified using glutathione-Sepharose, using methods essentially as described in (Xie et al., 1998, Biochemistry, 37:6410-6418). A GST-CD40 fusion protein was included as a negative control. Purified GST-fusion proteins (0.5-1.0 μg immobilized on 10-20 μl of glutathione beads) and 2.5 μl of […] reticulocyte lysates (TNT-Lysates; Promega, Inc., Madison, Wis.) containing ³⁵S-labeled in vitro translated (IVT) SBP1 protein were incubated in […] of HKMEN (10 mM HEPES [pH 7.2], 142 mM KCl, 5 mM MgCl₂, 2 mM EGTA, 0.1% NP-40) at 4° C. for 30 minutes. The beads were washed 3× with 1 ml HKMEN solution to remove unbound ³⁵S-labeled IVT SBP1 protein, followed by boiling in 25 μl of Laemmli-SDS sample buffer to release and denature SBP1 bound to the matrix-bound GST-fusion protein. The eluted proteins were analyzed by SDS-PAGE (12%) and detected by fluorography.
# [2] = target: fusion protein of the B42 trans-activation domain fused to XIAP (UniProt P98170 1-497); test: yeast two-hybrid, LEU2 growth and beta-galactosidase filter assay
# Sequence of fusion protein of the B42 trans-activation domain fused to XIAP (P98170 whole entry, the tested form may be a part): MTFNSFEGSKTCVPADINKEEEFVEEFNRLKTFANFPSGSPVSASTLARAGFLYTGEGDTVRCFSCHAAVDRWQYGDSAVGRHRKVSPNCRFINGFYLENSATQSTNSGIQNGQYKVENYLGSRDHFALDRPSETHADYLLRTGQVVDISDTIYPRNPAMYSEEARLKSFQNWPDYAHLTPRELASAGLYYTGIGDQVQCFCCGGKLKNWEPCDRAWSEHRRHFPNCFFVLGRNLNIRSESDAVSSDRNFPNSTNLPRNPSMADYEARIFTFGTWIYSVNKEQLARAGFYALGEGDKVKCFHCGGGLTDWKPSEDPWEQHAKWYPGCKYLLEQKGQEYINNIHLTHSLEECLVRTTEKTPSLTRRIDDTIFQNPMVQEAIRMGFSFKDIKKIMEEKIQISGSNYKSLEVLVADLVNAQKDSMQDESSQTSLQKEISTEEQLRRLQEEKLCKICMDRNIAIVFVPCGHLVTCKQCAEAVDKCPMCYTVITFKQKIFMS
# Protocol: (§1) A plasmid (1 μg DNA) encoding a fusion protein of the LexA DNA-binding domain appended to the N-terminus of SBP1 was co-transformed into yeast strain EGY48 with […] of pJG4-5 plasmid encoding fusion proteins of the B42 trans-activation domain fused to Survivin, Survivin T34E, Bcl-2, pro-caspase-9, XIAP, Bax, or Apaf-1. Bcl-2, pro-caspase-9, XIAP, Bax, and Apaf-1 are other […]. […] Only the Survivin T34E scored positive for leucine and β-galactosidase activity, wild type Survivin, Bcl-2, caspase-9, XIAP, Bax and Apaf-1 scored negative under the conditions.
# [3] = target: T2, fusion protein of the B42 …; test: as above
# Protocol: as §1
# [4] = target: T3, fusion protein of the B42 …; test: as above
# Protocol: as §1
molecule,measurement,setting,value
immunoprecipitated cyclin B1/cdc2,histone H1 phosphorylation,His-CKS1,is phosphorylated in the added presence of His-Cks 1
B1,binding result,[1],no binding
B2,binding result,[2],no binding
same,binding result,[3],no binding
same,binding result,[4],no binding
